The record followed here is article PMC9951844 (Nature Communications, 2023).

The chains are these.
B1: YB9-102 (antibody, V domains shown)
VH: EVQLLESGGGLVQPGGSLRLSCTASGFTFRYYAMTWVRQAPGKGLEWVSVIIGSGGDTYYADSVKGRFTISRDNSKNTLYLQMDSLRAEDTAVYYCATGELELGTCYFDYWGQGTLVTVSS
VL: DIQMTQSPSSVSASVGDRVTITCRASQGISSWLAWYQQKPGEAPKLLISAASSLQSGVPSRFSGSGSETDFTLTISSVQPEDFATYYCQQANSFPQAFGQGTKVEIK
B2: YB13-217 (antibody, V domains shown)
V domain 1: QVQLVESGGGVVQPGKSLRLSCTASGFTFSSHSMHWVRQAPGKGLDWVAVISFDGTKNYFADSLKGRFSVSRDNSRNTLYLQMNSLRVEDTAVYYCAREEGGSRMYHYYYGMDVWGQGTTVTVSS
V domain 2: QSVLTQPPSASGTPGQRVTISCSGSSSNIGTNTVNWYQQLPGTAPKLLIYTNNQRPSGVPDRFSGSKSGTSASLAIGGLQSEDEADYYCAAWDDSVSSYVFGTGTQVTAL
B3: YB12-202 (antibody, V domains shown)
VH: EVQLVQSGAEVKKPGESLKISCKGSGYSFISYWIVWVRQMPGKGLEWMGIIYPGDSDTRYSPSFHGQVTISADKSFSTAYLQWSSLKASDTAMYYCATTPHLYGGADYWGQGTLVTVSS
VL: not shown
B4: YB12-203 (antibody, V domains shown)
VH: QIQLQQSGPGLVEPSQTLSLTCAISGDSVSSISAAWNWIRQSPSRGLEWLGRTYYRSKWYNDYAVSVKSRITINPDTSKNQFSLHLNSVTPEDTAVYYCARDHLRWDIVATSLEAFDIWGQGTMVTVSS
VL: DIVMTQSPDSLAVSLGERATINCKSSQSVLFSSNNKNSLAWYQQKPGQPPKLLIYWASTRESGVPDRFSGSGSGTDFTLTISSLQAEDVAVYYCQQYHSSLLYTFGQGTKLEIK
B5: YB13-209 (antibody, V domains shown)
VH: EVQLVESGGGLVKPGGSLKLSCAASGFSFVNAWMSWVRQAPGKGLEWVGRIKDKIDGGTTDYAAPVKGRFSISRDDSKNMLYLQMTSLKTEDTAVYYCTTGYNWHYGIEYWGQGTLVTVSS
VL: DIQMTQSPSSLSASVGDRVTVTCRASQSINSYLNWYQQKPGKAPKLLIYAASSLQSGVPSRFSGSGSGTDFTLTISSLQAEDFATYYCQQSYSTPDTFGQGTKLEIK
B6: YB12-187 (antibody, V domains shown)
VH: EVQLVESGGGLVKPGGSLRLSCAASGFIFSTYSMNWVRQAPGKGLEWVSSISSFSTYIYYADSVKGRFTISRDNAKNSLYLQMNSLRAEDTAVYYCASGQMYSGSYPSGDYFDYWGQGTLVTVSS
VL: LSVLTQPPSVSGAPGQRVTISCTGSSSNIGADYDVHWYQQLPGTAPKLLIYGNTNRPSGVPDRFSGSKSGTSASLAITGLQAEDEAHYYCQSYDTSLSGVVFGGGTKLTVL
B7: YB13-291 (antibody, V domains shown)
V domain 1: QITLKESGPTLVKPTQTLTLTCTFSGFSLNTAGVAVGWIRQPPGKAREWLALIYWDDDQRYSPSLESRLTITKDTSKNLVVLTMTNMDPVDTATYYCAHPRYFSDNSAYYWIWGQGTMVTVSS
V domain 2: SYDLTQPPSVSVSPGQTATISCSGDALPKQYVYWYQQKPGQAPVLVIYKDSERPSGIPERFSGSNSGTTVTLTISGVQAEDEAEYYCQSADSSGFYVFGSGTQVTVL
B8: YB12-266 (antibody, V domains shown)
VH: EVQLVESGGGLIQPGGSLRLSCAASGLTVSSNYMSWVRQAPGKGLEWVSLIYSGGTTSYADSVKGRFTISRDNSKNTLYLQMNSLRVEDTAVYYCARDLVVYGMDVWGQGTTVTVSS
VL: AIQLTQSPSSLSASVGDRVTITCRASQGISSYLAWYQQKPGKAPKLLIYAASTLQSGVPSRFSGSGSGTDFTLTISSLQPEDFATYYCQLLNSYPLTFGGGTKVEIK
B9: YB13-221 (antibody, V domains shown)
VH: EVQLVESGGGLVQPGGSLRLSCAASGFIVSSRYMSWVRQAPGKGLEWVSVIYSDGRSYYADSVKGRFIISRDNFKNALYLQMNSLRAEDTAVYYCARDSPYRTGWFLGQSDAFDIWGQGTMVTVSS
VL: DIQMTQSPSTLSASVGDRVTITCRASQSISSWLAWYQQKPGKAPNLLIYKASSLESGVPSRFSASGSGTEFTLTISSLQPDDFATYYCQQYNSYPPSFGQGTKVEIK
B10: YB9-112 (antibody, V domains shown)
VH: EVRLVESGGGLIQPGGSLRLSCAASGLIVSSNYMTWVRQAPGKGLEWVSVIYSGGSTFYADSVKGRFTISRDNSKNTLFLQMSSLRAEDTAIYYCARDLDYYGMDVWGQGTTVTVSS
VL: DIQLTQSPSFLSASVGDRVTITCRASQGVASYLAWYQQKPGKAPKLLIYAASTLQSGVPSRFSGSGSGTEFTLTISSLQPEDFATYYCQHLNSYPPITFGQGTRLEIK
B11: YB12-195 (antibody, V domains shown)
VH: B10 VH with R3Q, L27F, T35N, F79Y, S83N, I92V, D100Q, Y101R, Y102D
VL: SYVLTQPPSVSVAPGKTARITCGGNNIGSKNVHWYQQKPGQAPVLVIYYDSDRPSGIPERFSGSNSGNTATLTVSRVEAGDEADYYCQLWDSSSDHVVFGGGTKLTVL
B12: YB13-275 (antibody, V domains shown)
V domain 1: QITLKESGPRLVKPTQTLTLTCTFSGFSLATAGMSVGWIRQPPGKALEWLALIYWDDDDRYSPSLKSRLTITKDTSRNQVVLTMTNMDPVDTATYYCIHPRFYSDPSGYYFIWGQGTMVTVSS
V domain 2: SYELTQPPSVSVSPGQTARITCSGDALAKQYAYWYQQKPGQAPVQVMYKDGERPSGIPERFSGSKSGTTVTLTISAVQAEDEADYFCQSADNSGFYVFGTGTQVTVL
B13: YB13-216 (antibody, V domains shown)
VH: QVQLVESGGGVVQPGSSLRISCAASGFTFSSYGMHWVRQGPGKGLEWVAVIWDDGSGKHYAVSVKGRFTISRDNSKNTLYLQMNSLRVEDTAVYYCARDEGTTVTFFDYWGQGTLVTVSS
VL: DIQMTQSPSSLSASVGDRITITCRASQSIRTYLNWYQQKPGKAPKLLIYTSSSLQSGVPSRFSGSGSGTDFTLTISSLQPEDFATYFCQQSYSTPPWTFGQGTKVEIK

Numbering of substitutions follows the chain as printed.

One test deals with SARS-CoV-2 wildtype S1 (SARS-CoV-2 wildtype (Wuhan), UniProt P0DTC2).
With B1, the binding result was “binds”.

B2: the binding result is “binds”.

As for B3, the binding result is reported as “binds”.

As for B4, the binding result is on record as “binds”.

In the case of B5, the binding result is on record as “binds”.

Consider B6, for which the binding result is recorded as “binds”.

For B7, the binding result was “binds”.

As for B8, the binding result is listed as “binds”.

In the case of B9, the binding result is “binds”.

With B10, the binding result is on record as “binds”.

Turning to B11, the binding result is given as “binds”.

For B12, the binding result is given as “binds”.

B13: the binding result is recorded as “binds”.

A further test addresses SARS-CoV-2 Beta (B.1.351) S1 (SARS-CoV-2 Beta (B.1.351), strain).
For B1, the binding result is recorded as “binds”.

Consider B2, for which the binding result is on record as “binds”.

Regarding B3, the binding result is recorded as “binds”.

For the molecule B4, the binding result is “binds”.

Consider B5, for which the binding result was “binds”.

Consider B6, for which the binding result was “binds”.

For the molecule B7, the binding result is “binds”.

Take B8: the binding result was “binds”.

B9: the binding result is reported as “binds”.

As for B10, the binding result was “binds”.

Consider B12, for which the binding result was “binds”.

B13: the binding result is given as “binds”.

Another test addresses SARS-CoV-2 Delta (B.1.617.2) S1 (SARS-CoV-2 Delta (B.1.617.2), strain).
In the case of B1, the binding result was “binds”.

B2: the binding result is given as “binds”.

Consider B3, for which the binding result is “binds”.

As to B4, the binding result is listed as “binds”.

For B5, the binding result was “binds”.

Turning to B6, the binding result is given as “binds”.

On to B7, for which the binding result is on record as “binds”.

For the molecule B8, the binding result was “binds”.

Turning to B9, the binding result is recorded as “binds”.

On to B10, for which the binding result was “binds”.

As to B11, the binding result is on record as “binds”.

As to B12, the binding result is on record as “binds”.

For the molecule B13, the binding result is given as “binds”.

The next test has as its target SARS-CoV-2 Gamma (P.1) S1 (SARS-CoV-2 Gamma (P.1), strain).
On to B1, for which the binding result was “binds”.

As for B2, the binding result is recorded as “binds”.

Take B3: the binding result is given as “binds”.

As for B5, the binding result was “binds”.

Regarding B6, the binding result is listed as “binds”.

Regarding B7, the binding result is reported as “binds”.

B8: the binding result is on record as “binds”.

As for B9, the binding result was “binds”.

On to B10, for which the binding result was “binds”.

With B11, the binding result was “binds”.

For the molecule B12, the binding result was “binds”.

For B13, the binding result is reported as “binds”.

Another test has as its target SARS-CoV-2 Lambda (C.37) RBD (SARS-CoV-2 Lambda (C.37), strain).
On to B1, for which the binding result is reported as “binds”.

Take B2: the binding result is listed as “binds”.

As to B3, the binding result is on record as “binds”.

On to B4, for which the binding result was “binds”.

Consider B5, for which the binding result is “binds”.

As for B6, the binding result was “binds”.

Take B7: the binding result was “binds”.

Take B8: the binding result is “binds”.

As to B9, the binding result is listed as “binds”.

On to B10, for which the binding result is “binds”.

With B11, the binding result is “binds”.

As for B12, the binding result is given as “binds”.

With B13, the binding result is “binds”.

The next test addresses SARS-CoV-2 Omicron BA.1 (B.1.1.529) RBD (SARS-CoV-2 Omicron BA.1 (B.1.1.529), strain).
On to B1, for which the binding result is listed as “binds”.

Turning to B2, the binding result is reported as “binds”.

For the molecule B3, the binding result is “binds”.

For B5, the binding result is “binds”.

For the molecule B6, the binding result is “binds”.

Turning to B13, the binding result was “binds”.

Another test deals with SARS-CoV-2 Kappa (B.1.617.1) spike ECD (SARS-CoV-2 Kappa (B.1.617.1), strain).
On to B1, for which the binding result was “binds”.

Turning to B2, the binding result is “binds”.

On to B3, for which the binding result was “binds”.

Consider B4, for which the binding result was “binds”.

With B5, the binding result is recorded as “binds”.

Take B6: the binding result is “binds”.

With B7, the binding result is “binds”.

As for B8, the binding result is recorded as “binds”.

As to B9, the binding result is on record as “binds”.

Take B10: the binding result is “binds”.

Regarding B11, the binding result is “binds”.

Consider B12, for which the binding result is given as “binds”.

As to B13, the binding result is on record as “binds”.
